Source: article doi:10.1101/2024.01.10.575016, “Cell Cycle Regulation has Shaped Budding Yeast Replication Origin Structure and Function” (bioRxiv, 2024)

Experiments:
Mcm4 = biological target: T1, Mcm4 (budding yeast, UniProt P30665 1-933); experiment: cryo-EM structure; MCM loading reaction on nucleosome-flanked ARS1 DNA (15 nM) with CDK-phosphorylated Orc6-4A ORC (40 nM) and MCM-Cdt1 (80 nM), 2.2 mM ATP, 30°C 30 min; SH and DH particles from the same data; details: both partners purified
T1 construct: Mcm4, budding yeast
T1 sequence: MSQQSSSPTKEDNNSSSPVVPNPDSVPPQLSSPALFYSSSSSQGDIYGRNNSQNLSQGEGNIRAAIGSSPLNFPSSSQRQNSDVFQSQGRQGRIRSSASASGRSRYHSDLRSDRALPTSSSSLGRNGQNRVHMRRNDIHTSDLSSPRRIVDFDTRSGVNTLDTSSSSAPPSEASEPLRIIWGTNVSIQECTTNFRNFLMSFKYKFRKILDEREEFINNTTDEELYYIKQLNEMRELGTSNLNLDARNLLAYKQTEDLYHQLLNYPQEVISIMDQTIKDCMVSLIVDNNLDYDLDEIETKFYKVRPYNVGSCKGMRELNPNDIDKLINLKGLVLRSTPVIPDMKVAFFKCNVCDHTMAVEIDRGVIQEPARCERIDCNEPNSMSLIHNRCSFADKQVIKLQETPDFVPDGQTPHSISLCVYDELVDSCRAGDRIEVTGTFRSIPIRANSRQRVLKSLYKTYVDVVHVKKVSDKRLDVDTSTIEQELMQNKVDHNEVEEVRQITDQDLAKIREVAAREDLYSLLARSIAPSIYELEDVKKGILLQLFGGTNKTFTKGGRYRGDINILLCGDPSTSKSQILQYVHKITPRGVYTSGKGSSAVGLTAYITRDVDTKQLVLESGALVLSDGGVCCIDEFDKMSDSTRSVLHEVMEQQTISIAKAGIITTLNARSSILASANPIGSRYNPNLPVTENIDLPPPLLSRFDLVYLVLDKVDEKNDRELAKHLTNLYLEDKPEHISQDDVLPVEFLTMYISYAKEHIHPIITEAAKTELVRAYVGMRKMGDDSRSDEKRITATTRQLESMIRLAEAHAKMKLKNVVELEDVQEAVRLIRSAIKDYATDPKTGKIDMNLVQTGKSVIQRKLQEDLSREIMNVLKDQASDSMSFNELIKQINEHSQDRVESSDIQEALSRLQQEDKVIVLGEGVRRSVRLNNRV

Mcm3 = biological target: T2, Mcm3 (budding yeast, UniProt P24279 1-971); experiment: as above; details: both partners purified
T2 construct: Mcm3, budding yeast
T2 sequence (P24279 whole entry): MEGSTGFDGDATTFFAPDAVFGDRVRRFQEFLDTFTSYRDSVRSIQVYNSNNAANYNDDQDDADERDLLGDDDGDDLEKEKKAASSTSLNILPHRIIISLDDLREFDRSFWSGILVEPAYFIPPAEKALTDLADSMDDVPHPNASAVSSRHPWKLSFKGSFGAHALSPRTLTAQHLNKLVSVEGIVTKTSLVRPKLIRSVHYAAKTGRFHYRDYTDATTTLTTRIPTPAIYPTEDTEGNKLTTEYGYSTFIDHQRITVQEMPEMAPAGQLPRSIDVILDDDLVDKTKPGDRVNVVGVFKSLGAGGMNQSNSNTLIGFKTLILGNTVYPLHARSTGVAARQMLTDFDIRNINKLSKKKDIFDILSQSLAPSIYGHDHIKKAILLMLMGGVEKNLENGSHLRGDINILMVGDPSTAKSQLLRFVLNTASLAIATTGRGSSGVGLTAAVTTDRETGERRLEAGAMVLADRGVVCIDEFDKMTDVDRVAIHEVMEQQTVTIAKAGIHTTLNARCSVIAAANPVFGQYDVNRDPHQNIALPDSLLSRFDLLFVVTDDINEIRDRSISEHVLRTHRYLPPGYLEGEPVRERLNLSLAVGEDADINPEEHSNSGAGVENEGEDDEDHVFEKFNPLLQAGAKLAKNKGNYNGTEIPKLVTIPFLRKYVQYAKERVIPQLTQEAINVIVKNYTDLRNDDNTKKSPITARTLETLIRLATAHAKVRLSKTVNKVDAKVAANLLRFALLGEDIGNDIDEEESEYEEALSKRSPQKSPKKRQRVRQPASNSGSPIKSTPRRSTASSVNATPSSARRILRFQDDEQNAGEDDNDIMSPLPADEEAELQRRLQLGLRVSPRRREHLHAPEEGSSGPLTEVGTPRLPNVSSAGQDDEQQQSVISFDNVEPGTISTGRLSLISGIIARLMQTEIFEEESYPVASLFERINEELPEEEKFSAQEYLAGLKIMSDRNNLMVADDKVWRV

binding result (Mcm4): binds
binding result (Mcm3): binds
B1: Mcm7 (natural protein, budding yeast)
chain: MSAALPSIQLPVDYNNLFNEITDFLVTFKQDTLSSDATRNENEDENLDAENIEQHLLEKGPKYMAMLQKVANRELNSVIIDLDDILQYQNEKFLQGTQADDLVSAIQQNANHFTELFCRAIDNNMPLPTKEIDYKDDVLDVILNQRRLRNERMLSDRTNEIRSENLMDTTMDPPSSMNDALREVVEDETELFPPNLTRRYFLYFKPLSQNCARRYRKKAISSKPLSVRQIKGDFLGQLITVRGIITRVSDVKPAVEVIAYTCDQCGYEVFQEVNSRTFTPLSECTSEECSQNQTKGQLFMSTRASKFSAFQECKIQELSQQVPVGHIPRSLNIHVNGTLVRSLSPGDIVDVTGIFLPAPYTGFKALKAGLLTETYLEAQFVRQHKKKFASFSLTSDVEERVMELITSGDVYNRLAKSIAPEIYGNLDVKKALLLLLVGGVDKRVGDGMKIRGDINVCLMGDPGVAKSQLLKAICKISPRGVYTTGKGSSGVGLTAAVMKDPVTDEMILEGGALVLADNGICCIDEFDKMDESDRTAIHEVMEQQTISISKAGINTTLNARTSILAAANPLYGRYNPRLSPLDNINLPAALLSRFDILFLMLDIPSRDDDEKLAEHVTYVHMHNKQPDLDFTPVEPSKMREYIAYAKTKRPVMSEAVNDYVVQAYIRLRQDSKREMDSKFSFGQATPRTLLGIIRLSQALAKLRLADMVDIDDVEEALRLVRVSKESLYQETNKSKEDESPTTKIFTIIKKMLQETGKNTLSYENIVKTVRLRGFTMLQLSNCIQEYSYLNVWHLINEGNTLKFVDDGTMDTDQEDSLVSTPKLAPQTTASANVSAQDSDIDLQDA
notes: Mcm7, budding yeast
